# Reference: US20030194411A1
# Key:
# [1] = target: MN-PND peptide … (HIV-1 MN strain); experiment: MN-PND ELISA, serum 1:2500, day 0
# [2] = target: MN-PND peptide … (HIV-1 MN strain); experiment: MN-PND ELISA, serum 1:500, day 0
# [3] = target: MN-PND peptide … (HIV-1 MN strain); experiment: MN-PND ELISA, serum 1:100, day 0
# [4] = target: MN-PND peptide … (HIV-1 MN strain); experiment: MN-PND ELISA, serum 1:20, day 0
# [5] = target: MN-PND peptide … (HIV-1 MN strain); experiment: MN-PND ELISA, serum 1:1000, day 0
substance,measurement,setting,value
"guinea pig serum sample 0 (day 0, Example V) (antibody)",O.D.,[1],0.04 O.D.
same,O.D.,[2],0.05 O.D.
same,O.D.,[3],0.07 O.D.
same,O.D.,[4],0.15 O.D.
same,O.D.,[5],0.05 O.D.
